Data reported in publication PMC7758071.
Values joined by “and” are separate entries in the source; they are usually repeats but may differ in a detail not shown here. Equal entries are not always repeated.

Target: Chinese hamster BiP, wild type, with an N-terminal His6-tag (UK173) (Chinese hamster) (UniProt G3I8R9)
Assay: SEC; 40 µM BiP with 1 mM ADP, 20 min at 24°C; SEC-3 HPLC column, 50 mM HEPES-KOH pH 7.4, 150 mM KCl, 10 mM MgCl2, 26°C; A230

Substance: Chinese hamster BiP, wild type, with an N-terminal His6-tag (UK173) (from UniProt G3I8R9 19-654) (natural protein)
- stoichiometry N: 2 and 3
